Laboratory results from the RNAGym collection of RNA variant scans (doi:10.7554/elife.80360).

B1: HDV Ribozyme (parent)
chain: GGCCGGCAUGGUCCCAGCCUCCUCGCUGGCGCCGGCUGGGCAACAUUCCGAGGGGACCGUCCCCUCGGUAAUGGCGAAUGGGACCCA

Variants of: B1
Assay: self-cleavage, relative activity (ratio to wild type); higher = more cleavage; co-transcriptional

Variant	self-cleavage
C19G C21A	0.208
C19G C21G	0.0326
C19U C58U	0.126
C19U C58G	0.0959
C19U C58A	0.086
C19G G35C	0.208
C19G G35U	0.119
U20A C58G	0.158
U20A C58A	0.0615
C19U A78C	0.172
C19U A78G	0.0405
C19U G34U	0.0755
C19U G76U	0.288
C19U G76C	0.277
C19U C36A	0.0639
C19U C36G	0.0723
U20A C48A	0.0573
C19G A56G	0.0639
C19G A56U	0.0573
U20A G74U	0.0437
U20A G74A	0
C19U C84G	0.0332
U20A G59A	0.0302
U20A G59U	0.222

Variant	self-cleavage
U20A G59C	0.0475
C19G U79C	0.0264
C19G U79A	0
U20A G25U	0.119
U20A G25C	0.151
U20A G25A	0.0852
C19U G50C	0.332
C19U G50A	0.245
C19U A71C	0.0898
C19U A71G	0.104
C19U G38C	0.0875
C19U G38U	0
C19U C30G	0.0936
C19U C30A	0.0449
C19G U37C	0.0594
U20A C30A	0.0739
U20A C30U	0.0415
U20A C61U	0.208
U20A C61G	0.0536
U20A C57G	0
U20A C57U	0.0707
C19U G29C	0.122
C19U C48G	0.0594
C19U C48U	0.0978

Variant	self-cleavage
C19U C48A	0.117
C19A U46C	0.0665
C19U U27G	0.237
C19U A45U	0.136
C19U U20G	0.0594
C19U C22G	0.0692
C19G C63A	0.0936
C19G C63G	0.229
C19G C41A	0.157
C19G C41U	0.155
U20A C32A	0.0489
C19G C36G	0.0264
C19U U65G	0.182
C19U U65C	0.154
C19U U65A	0.0791
C19G U27C	0.0875
C19U G80C	0.112
C19U G80U	0.0642
C19G A70G	0.104
C19G A70U	0.102
C19G G82U	0.0627
C19G G82A	0.102
U20C A42G	0
U20A U27G	0

Variant	self-cleavage
U20A G50U	0
U20A G80U	0.0141
U20A G80C	0.0992
U20A C24G	0.0449
C19U U60G	0.182
C19U U60A	0.192
C19U U60C	0.0906
C19A U69G	0.12
C19A U69A	0.143
C19G C57U	0.0528
C19G C57A	0.0256
C19G G25A	0.113
C19G G25C	0.156
C19G C64U	0.056
C19G C64G	0.113
C19G C66A	0.108
C19G C66G	0.141
U20A C21U	0.0898
C19U C24U	0.101
C19G C30U	0.0462
U20A A42C	0.0594
U20A A42U	0
U20A A71C	0.0554
U20A A71U	0.0504

Variant	self-cleavage
C19G G74C	0.0665
C19G G74U	0.0601
C19U G68A	0.148
C19U G68U	0.168
C19U G68C	0.148
U20A G68A	0.0504
U20A G68U	0
U20A A43G	0.0573
C19U G28U	0.172
C19U G28C	0.0875
C19G U47C	0.0852
C19G U47A	0.106
C19U C75U	0.0329
C19U C75A	0.0665
C19U A51G	0.194
C19A U37G	0.151
C19U G74C	0.126
C19U G74A	0.0961
C19G G34U	0.095
C19G U20G	0.138
C19G U20A	0.0314
C19G C86U	0.26
U20A C75U	0.0489
U20A U37A	0.0831

Variant	self-cleavage
U20A U37G	0.277
U20A C85A	0.26
C19G G29C	0.201
C19G G29U	0
C19G G29A	0.0378
C19U G25A	0.0252
C19U A42U	0.035
C19U U47A	0.191
C19U U47C	0.111
U20A G38U	0.122
U20A G38A	0.0332
C19G G80C	0.0773
C19G C61U	0.0707
C19G C61G	0.0378
C19U U72C	0.0354
C19G C24U	0.0339
C19G C24G	0
C19G C24A	0.115
U20A A45C	0.0639
U20A C49U	0.0665
C19G G53C	0.0852
C19G G53U	0.0542
C19G G53A	0.041
C19G G68U	0.119

Variant	self-cleavage
C19U A56G	0.119
C19U A56C	0.0936
C19G G73U	0.0545
U20A A83U	0.0978
U20A A83C	0
C19G A71U	0
C19G A71G	0.158
C19U C85U	0.22
U20A U60G	0.128
U20A U60C	0
C19U G82U	0.0702
C19U G40A	0.0944
C19U G40C	0.0923
U20A G40C	0.178
C19U C32U	0.295
C19U C32A	0.0361
C19G C62A	0.0264
C19G C62U	0.116
U20A G82U	0.0875
U20A G82C	0
U20A G31U	0.0978
C19G G59A	0.0542
C19G G59U	0.04
